Results as given in patent US20140348865A1, “[…] ON AN HIV-1 V1V2 SITE-OF-VULNERABILITY” (The United States of America, as represented by the …, priority 2011, published 2014).

Tests used:
[1] = target: Env of HIV-1 strain 0439 (pseudovirus) (HIV-1)
[2] = target: Env of HIV-1 strain 398 (pseudovirus) (HIV-1)
[3] = target: Env of HIV-1 strain CNE56 (pseudovirus) (HIV-1)
[4] = target: Env of HIV-1 strain QH209 (pseudovirus) (HIV-1)
[5] = target: Env of HIV-1 strain 6405 (pseudovirus) (HIV-1)
[6] = target: Env of HIV-1 strain A03349M1 (pseudovirus) (HIV-1)
[7] = target: Env of HIV-1 strain X2088 (pseudovirus) (HIV-1)

## monoclonal antibody PG9
0260.v5.c36 (HIV-1)
  neutralization IC80: 22.8 µg/mL
0815_V3_C3 (HIV-1)
  neutralization IC80: > 50 µg/mL
3301_V1_C24 (HIV-1)
  neutralization IC80: 1.51 µg/mL
3415.v1.c1 (HIV-1)
  neutralization IC80: 0.77 µg/mL
3468_V1_C12 (HIV-1)
  neutralization IC80: > 50 µg/mL
3589_V1_C4 (HIV-1)
  neutralization IC80: 0.102 µg/mL
3718.v3.c11 (HIV-1)
  neutralization IC80: 0.202 µg/mL
6095_V1_C10 (HIV-1)
  neutralization IC80: 2.25 µg/mL
620345.c1 (HIV-1)
  neutralization IC80: > 50 µg/mL
6540.v4.c1 (HIV-1)
  neutralization IC80: 0.213 µg/mL
6545_V4_C1 (HIV-1)
  neutralization IC80: 0.315 µg/mL
BB201.B42 (HIV-1)
  neutralization IC80: 0.046 µg/mL
BI369.9A (HIV-1)
  neutralization IC80: 0.151 µg/mL
BS208.B1 (HIV-1)
  neutralization IC80: 0.098 µg/mL
C1080.c3 (HIV-1)
  neutralization IC80: 0.011 µg/mL
C2101.c1 (HIV-1)
  neutralization IC80: 0.289 µg/mL
C4118.09 (HIV-1)
  neutralization IC80: 0.205 µg/mL
CNE3 (HIV-1)
  neutralization IC80: 1.12 µg/mL
CNE55 (HIV-1)
  neutralization IC80: 1.32 µg/mL
[1]
  neutralization IC80: > 50 µg/mL
[2]
  neutralization IC80: > 50 µg/mL
[3]
  neutralization IC80: > 50 µg/mL
[4]
  neutralization IC80: > 50 µg/mL
KER2008.12 (HIV-1)
  neutralization IC80: 0.085 µg/mL
KER2018.11 (HIV-1)
  neutralization IC80: 0.004 µg/mL
KNH1209.18 (HIV-1)
  neutralization IC80: > 50 µg/mL
M02138 (HIV-1)
  neutralization IC80: 1.36 µg/mL
MB201.A1 (HIV-1)
  neutralization IC80: 0.193 µg/mL
MB539.2B7 (HIV-1)
  neutralization IC80: 0.383 µg/mL
MI369.A5 (HIV-1)
  neutralization IC80: 0.364 µg/mL
MS208.A1 (HIV-1)
  neutralization IC80: 0.589 µg/mL
Q168.a2 (HIV-1)
  neutralization IC80: 0.342 µg/mL
Q23.17 (HIV-1)
  neutralization IC80: 0.02 µg/mL
Q259.17 (HIV-1)
  neutralization IC80: 0.229 µg/mL
Q461.e2 (HIV-1)
  neutralization IC80: 29.9 µg/mL
Q769.d22 (HIV-1)
  neutralization IC80: 0.033 µg/mL
Q769.h5 (HIV-1)
  neutralization IC80: 0.007 µg/mL
Q842.d12 (HIV-1)
  neutralization IC80: 0.021 µg/mL
R1166.c1 (HIV-1)
  neutralization IC80: 9.24 µg/mL
R2184.c4 (HIV-1)
  neutralization IC80: 1.75 µg/mL
R3265.c6 (HIV-1)
  neutralization IC80: 9.8 µg/mL
TH966.8 (HIV-1)
  neutralization IC80: 0.183 µg/mL
TH976.17 (HIV-1)
  neutralization IC80: > 50 µg/mL
UG037.8 (HIV-1)
  neutralization IC80: 0.085 µg/mL
231965.c1 (HIV-1)
  neutralization IC80: > 50 µg/mL
3016.v5.c45 (HIV-1)
  neutralization IC80: > 50 µg/mL
3326_V4_C3 (HIV-1)
  neutralization IC80: 0.111 µg/mL
3337_V2_C6 (HIV-1)
  neutralization IC80: > 50 µg/mL
3817.v2.c59 (HIV-1)
  neutralization IC80: 0.028 µg/mL
57128.vrc15 (HIV-1)
  neutralization IC80: 0.665 µg/mL
[5]
  neutralization IC80: > 50 µg/mL
[6]
  neutralization IC80: > 50 µg/mL
[7]
  neutralization IC80: > 50 µg/mL
NKU3006.ec1 (HIV-1)
  neutralization IC80: > 50 µg/mL
SIVmac251.30.SG3 (SIV)
  neutralization IC80: > 50 µg/mL
SVA.MLV
  neutralization IC80: > 50 µg/mL
UG021.16 (HIV-1)
  neutralization IC80: > 50 µg/mL
UG024.2 (HIV-1)
  neutralization IC80: > 50 µg/mL
ZM233.6 (HIV-1)
  neutralization IC80: < 0.023 µg/mL
ZM249.1 (HIV-1)
  neutralization IC80: 0.408 µg/mL
ZM53.12 (HIV-1)
  neutralization IC80: 0.17 µg/mL
ZM55.28a (HIV-1)
  neutralization IC80: 11.5 µg/mL

## monoclonal antibody PG16
0260.v5.c36 (HIV-1)
  neutralization IC80: > 50 µg/mL
0815_V3_C3 (HIV-1)
  neutralization IC80: > 50 µg/mL
3301_V1_C24 (HIV-1)
  neutralization IC80: 0.397 µg/mL
3415.v1.c1 (HIV-1)
  neutralization IC80: 0.342 µg/mL
3468_V1_C12 (HIV-1)
  neutralization IC80: > 50 µg/mL
3589_V1_C4 (HIV-1)
  neutralization IC80: 37.8 µg/mL
3718.v3.c11 (HIV-1)
  neutralization IC80: 0.102 µg/mL
6095_V1_C10 (HIV-1)
  neutralization IC80: 0.443 µg/mL
620345.c1 (HIV-1)
  neutralization IC80: > 50 µg/mL
6540.v4.c1 (HIV-1)
  neutralization IC80: 0.154 µg/mL
6545_V4_C1 (HIV-1)
  neutralization IC80: 0.562 µg/mL
BB201.B42 (HIV-1)
  neutralization IC80: 0.008 µg/mL
BI369.9A (HIV-1)
  neutralization IC80: 0.037 µg/mL
BS208.B1 (HIV-1)
  neutralization IC80: 0.012 µg/mL
C1080.c3 (HIV-1)
  neutralization IC80: 0.004 µg/mL
C2101.c1 (HIV-1)
  neutralization IC80: 0.069 µg/mL
C4118.09 (HIV-1)
  neutralization IC80: 0.24 µg/mL
CNE3 (HIV-1)
  neutralization IC80: > 50 µg/mL
CNE55 (HIV-1)
  neutralization IC80: > 50 µg/mL
[1]
  neutralization IC80: > 50 µg/mL
[2]
  neutralization IC80: > 50 µg/mL
[3]
  neutralization IC80: > 50 µg/mL
[4]
  neutralization IC80: > 50 µg/mL
KER2008.12 (HIV-1)
  neutralization IC80: 0.046 µg/mL
KER2018.11 (HIV-1)
  neutralization IC80: 0.002 µg/mL
KNH1209.18 (HIV-1)
  neutralization IC80: > 50 µg/mL
M02138 (HIV-1)
  neutralization IC80: 0.81 µg/mL
MB201.A1 (HIV-1)
  neutralization IC80: 0.019 µg/mL
MB539.2B7 (HIV-1)
  neutralization IC80: 0.205 µg/mL
MI369.A5 (HIV-1)
  neutralization IC80: 0.082 µg/mL
MS208.A1 (HIV-1)
  neutralization IC80: 31.8 µg/mL
Q168.a2 (HIV-1)
  neutralization IC80: 0.106 µg/mL
Q23.17 (HIV-1)
  neutralization IC80: 0.004 µg/mL
Q259.17 (HIV-1)
  neutralization IC80: 0.717 µg/mL
Q461.e2 (HIV-1)
  neutralization IC80: > 50 µg/mL
Q769.d22 (HIV-1)
  neutralization IC80: 11 µg/mL
Q769.h5 (HIV-1)
  neutralization IC80: 0.02 µg/mL
Q842.d12 (HIV-1)
  neutralization IC80: 0.006 µg/mL
R1166.c1 (HIV-1)
  neutralization IC80: 12.5 µg/mL
R2184.c4 (HIV-1)
  neutralization IC80: > 50 µg/mL
R3265.c6 (HIV-1)
  neutralization IC80: 0.691 µg/mL
TH966.8 (HIV-1)
  neutralization IC80: 0.03 µg/mL
TH976.17 (HIV-1)
  neutralization IC80: > 50 µg/mL
UG037.8 (HIV-1)
  neutralization IC80: 0.004 µg/mL
231965.c1 (HIV-1)
  neutralization IC80: > 50 µg/mL
3016.v5.c45 (HIV-1)
  neutralization IC80: > 50 µg/mL
3326_V4_C3 (HIV-1)
  neutralization IC80: 0.221 µg/mL
3337_V2_C6 (HIV-1)
  neutralization IC80: > 50 µg/mL
3817.v2.c59 (HIV-1)
  neutralization IC80: 0.051 µg/mL
57128.vrc15 (HIV-1)
  neutralization IC80: > 50 µg/mL
[5]
  neutralization IC80: > 50 µg/mL
[6]
  neutralization IC80: > 50 µg/mL
[7]
  neutralization IC80: > 50 µg/mL
NKU3006.ec1 (HIV-1)
  neutralization IC80: > 50 µg/mL
SIVmac251.30.SG3 (SIV)
  neutralization IC80: > 50 µg/mL
SVA.MLV
  neutralization IC80: > 50 µg/mL
UG021.16 (HIV-1)
  neutralization IC80: > 50 µg/mL
UG024.2 (HIV-1)
  neutralization IC80: > 50 µg/mL
ZM233.6 (HIV-1)
  neutralization IC80: < 0.023 µg/mL
ZM249.1 (HIV-1)
  neutralization IC80: 9.23 µg/mL
ZM53.12 (HIV-1)
  neutralization IC80: 0.103 µg/mL
ZM55.28a (HIV-1)
  neutralization IC80: > 50 µg/mL
